In paper PMC7720148:

Legend:
Assay in all cases: single-molecule force spectroscopy
[1] = target: unmodified nucleosome (human histone octamer on 601 DNA) in nucleosome arrays (human) (UniProt P04908)
[2] = target: 12-mer array with an equimolar mixture of unmodified and H3K27me3-containing nucleosomes (UniProt P04908)
[3] = target: 12-mer array with 50% H3K27M mutant copies of H3 (human) (UniProt P04908)
[4] = target: H3K27M mutant nucleosome (100% H3K27M 12-mer array) (human) (UniProt P04908)

“PRC2–AEBP2 complex (from UniProt Q15910;O75530;Q09028;Q15022;Q6ZN18)” showed an average transition force (all clusters) [1] of 14.5 pN.

“Polycomb repressive complex 2 (PRC2) core complex (from UniProt Q15910;O75530;Q09028;Q15022)” showed an average C3 transition force, with SAM [1] of 17.8 pN, an average C4 transition force, with SAM [1] of 19.8 pN and an average rupture force of C3 transitions (adjacent nucleosome pair) [1] of 16.3 pN. The average transition force (all clusters) [1] was 17 pN, the average transition force (all clusters), with SAM [1] was 17.8 pN and the average rupture force of C3 transitions [2] was 14.6 pN. The average rupture force of C4 transitions [2] was 16.9 pN, the average transition force (all clusters), with SAM [3] was 18.3 pN and the average C3 transition force, with SAM [4] was 19.6 pN. It also gave an average C4 transition force, with SAM [4] of 26.1 pN and an average transition force (all clusters), with SAM [4] of 19.6 pN.
